Source: publication PMC8307404, “Crystal Structure-Guided Design of Bisubstrate Inhibitors and Photoluminescent Probes for Protein Kinases of the PIM Family” (Molecules, 2021)
Square brackets hold non-standard residues; d marks the D form. Peptide text beside a SMILES is read from it. * marks the point of attachment. X3 = O=C(CCCCCNCc1nc2c(sc3cc(Br)cnc32)c(=O)[nH]1)*

How the values were obtained:
Test in all cases: Kinase profiling (radiometric filter-binding)
Type in all cases: biochemical
[1] = molecular target: T1, ASK1 (Homo sapiens, UniProt Q99683); settings: ASK1, 1 µM inhibitor; read-out: Residual activity, %
T1 sequence (Q99683 1-1374): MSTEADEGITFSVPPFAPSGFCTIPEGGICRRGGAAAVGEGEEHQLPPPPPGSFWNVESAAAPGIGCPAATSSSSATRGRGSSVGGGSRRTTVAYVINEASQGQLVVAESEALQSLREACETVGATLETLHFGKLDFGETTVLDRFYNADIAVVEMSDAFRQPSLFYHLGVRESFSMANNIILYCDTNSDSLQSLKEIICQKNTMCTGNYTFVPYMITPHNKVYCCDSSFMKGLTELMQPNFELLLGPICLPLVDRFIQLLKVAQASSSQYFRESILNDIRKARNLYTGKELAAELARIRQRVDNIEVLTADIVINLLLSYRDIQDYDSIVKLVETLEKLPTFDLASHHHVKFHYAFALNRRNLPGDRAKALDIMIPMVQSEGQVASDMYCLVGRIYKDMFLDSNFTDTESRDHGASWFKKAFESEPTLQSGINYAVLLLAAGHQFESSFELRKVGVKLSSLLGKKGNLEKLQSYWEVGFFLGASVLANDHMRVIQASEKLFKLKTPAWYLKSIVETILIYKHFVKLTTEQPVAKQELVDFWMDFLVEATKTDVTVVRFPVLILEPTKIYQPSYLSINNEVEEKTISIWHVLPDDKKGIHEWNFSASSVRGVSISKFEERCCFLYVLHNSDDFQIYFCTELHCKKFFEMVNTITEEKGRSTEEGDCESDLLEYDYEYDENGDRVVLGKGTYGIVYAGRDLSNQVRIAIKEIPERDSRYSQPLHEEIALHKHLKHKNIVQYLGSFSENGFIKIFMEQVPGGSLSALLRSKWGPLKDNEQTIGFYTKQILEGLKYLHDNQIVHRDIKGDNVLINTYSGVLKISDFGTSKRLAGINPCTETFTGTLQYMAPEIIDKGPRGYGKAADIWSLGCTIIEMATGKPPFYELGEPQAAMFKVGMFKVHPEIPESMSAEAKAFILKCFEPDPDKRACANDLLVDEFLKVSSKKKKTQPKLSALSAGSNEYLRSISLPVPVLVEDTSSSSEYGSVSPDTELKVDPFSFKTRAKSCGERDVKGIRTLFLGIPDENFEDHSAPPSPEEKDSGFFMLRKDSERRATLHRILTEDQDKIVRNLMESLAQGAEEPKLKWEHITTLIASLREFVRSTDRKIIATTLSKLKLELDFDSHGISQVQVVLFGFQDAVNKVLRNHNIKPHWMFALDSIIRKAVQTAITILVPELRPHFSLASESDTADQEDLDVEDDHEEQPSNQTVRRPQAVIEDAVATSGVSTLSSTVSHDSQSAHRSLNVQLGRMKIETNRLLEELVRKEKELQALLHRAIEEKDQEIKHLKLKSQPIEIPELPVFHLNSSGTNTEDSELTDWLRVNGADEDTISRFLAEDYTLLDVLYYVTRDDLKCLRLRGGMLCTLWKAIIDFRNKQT
How it was run: (§1)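 Percent activity retained relative to the no-inhibitor reaction is given. Assays used human enzymes, radiolabel filter capture, ATP concentrations not exceeding the respective KM, and a final inhibitor level of 1 µM.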

[2] = molecular target: BTK (Homo sapiens, UniProt Q06187); settings: 1 µM inhibitor, read-out: Residual activity, %
How it was run: as §1

[3] = molecular target: CHK2 (Homo sapiens, UniProt O96017); settings: CHK2, 1 µM inhibitor; read-out: Residual activity, %
How it was run: as §1

[4] = molecular target: MST4 (Homo sapiens, UniProt Q9P289); settings: MST4, 1 µM inhibitor; read-out: Residual activity, %
How it was run: as §1

[5] = molecular target: PDGFRA (Homo sapiens, UniProt P16234); settings: 1 µM inhibitor, read-out: Residual activity, %
How it was run: as §1

[6] = molecular target: PKC (Homo sapiens, UniProt P17252); settings: first of two PKC lines (Greek letter lost), 1 µM inhibitor, read-out: Residual activity, %
How it was run: as §1

[7] = molecular target: T2, PKC (Homo sapiens, UniProt Q05513); settings: second of two PKC lines (Greek letter lost), 1 µM inhibitor, read-out: Residual activity, %
T2 sequence (Q05513 1-592): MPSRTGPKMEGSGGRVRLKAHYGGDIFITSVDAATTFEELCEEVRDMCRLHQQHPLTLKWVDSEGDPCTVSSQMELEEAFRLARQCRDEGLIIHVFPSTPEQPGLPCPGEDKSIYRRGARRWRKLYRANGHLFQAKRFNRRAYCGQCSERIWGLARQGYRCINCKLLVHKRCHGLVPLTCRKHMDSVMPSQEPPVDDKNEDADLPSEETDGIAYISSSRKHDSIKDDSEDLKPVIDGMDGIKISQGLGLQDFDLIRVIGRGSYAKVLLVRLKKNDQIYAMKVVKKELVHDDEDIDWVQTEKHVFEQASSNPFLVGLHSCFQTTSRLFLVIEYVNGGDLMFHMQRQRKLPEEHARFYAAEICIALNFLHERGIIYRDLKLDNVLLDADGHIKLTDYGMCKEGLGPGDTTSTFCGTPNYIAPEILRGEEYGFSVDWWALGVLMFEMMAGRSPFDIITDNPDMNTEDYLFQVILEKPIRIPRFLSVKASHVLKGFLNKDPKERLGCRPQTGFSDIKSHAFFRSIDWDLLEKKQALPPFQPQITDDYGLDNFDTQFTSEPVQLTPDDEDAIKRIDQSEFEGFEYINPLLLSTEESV
How it was run: as §1

[8] = molecular target: PLK1 (Homo sapiens, UniProt P53350); settings: PLK1, 1 µM inhibitor; read-out: Residual activity, %
How it was run: as §1

[9] = molecular target: PRK2 (Homo sapiens, UniProt Q16513); settings: PRK2, 1 µM inhibitor; read-out: Residual activity, %
How it was run: as §1

[10] = molecular target: SRPK1 (Homo sapiens, UniProt Q96SB4); settings: SRPK1, 1 µM inhibitor; read-out: Residual activity, %
How it was run: as §1

[11] = molecular target: p38 MAPK (Homo sapiens, UniProt Q15759); settings: second of four lines (Greek letter lost), 1 µM inhibitor, read-out: Residual activity, %
How it was run: as §1

PLK1, sequence (P53350 whole entry): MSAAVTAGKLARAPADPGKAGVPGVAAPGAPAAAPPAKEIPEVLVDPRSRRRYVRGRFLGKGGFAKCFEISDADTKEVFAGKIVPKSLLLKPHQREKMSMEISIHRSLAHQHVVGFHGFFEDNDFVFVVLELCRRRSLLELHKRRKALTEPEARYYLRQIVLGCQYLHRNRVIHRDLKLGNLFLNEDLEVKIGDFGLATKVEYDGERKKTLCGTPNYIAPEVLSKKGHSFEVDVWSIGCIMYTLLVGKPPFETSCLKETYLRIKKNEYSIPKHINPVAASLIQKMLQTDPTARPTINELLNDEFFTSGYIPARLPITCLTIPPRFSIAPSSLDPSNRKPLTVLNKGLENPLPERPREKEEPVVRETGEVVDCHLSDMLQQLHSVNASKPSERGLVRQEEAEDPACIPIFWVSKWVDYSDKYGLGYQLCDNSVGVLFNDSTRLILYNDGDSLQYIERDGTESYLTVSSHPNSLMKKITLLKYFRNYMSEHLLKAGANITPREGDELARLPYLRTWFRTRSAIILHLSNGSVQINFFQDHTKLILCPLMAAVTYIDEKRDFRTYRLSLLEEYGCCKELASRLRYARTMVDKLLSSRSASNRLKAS
CHK2, sequence (O96017 whole entry): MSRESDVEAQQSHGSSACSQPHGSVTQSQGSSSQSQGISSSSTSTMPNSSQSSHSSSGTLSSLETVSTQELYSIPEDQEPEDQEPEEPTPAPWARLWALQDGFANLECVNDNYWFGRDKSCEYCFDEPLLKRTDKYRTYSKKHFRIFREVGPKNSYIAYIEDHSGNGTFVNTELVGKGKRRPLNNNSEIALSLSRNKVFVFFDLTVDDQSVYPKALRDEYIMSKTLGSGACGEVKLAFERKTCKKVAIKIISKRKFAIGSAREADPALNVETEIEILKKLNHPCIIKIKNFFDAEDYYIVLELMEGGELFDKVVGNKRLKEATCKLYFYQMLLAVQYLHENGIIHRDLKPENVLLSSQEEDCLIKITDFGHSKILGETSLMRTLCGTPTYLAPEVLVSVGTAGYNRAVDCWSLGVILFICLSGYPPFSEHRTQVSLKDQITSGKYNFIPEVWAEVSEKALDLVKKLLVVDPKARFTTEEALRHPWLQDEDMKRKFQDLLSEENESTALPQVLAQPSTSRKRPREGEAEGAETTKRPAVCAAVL
BTK, sequence (Q06187 whole entry): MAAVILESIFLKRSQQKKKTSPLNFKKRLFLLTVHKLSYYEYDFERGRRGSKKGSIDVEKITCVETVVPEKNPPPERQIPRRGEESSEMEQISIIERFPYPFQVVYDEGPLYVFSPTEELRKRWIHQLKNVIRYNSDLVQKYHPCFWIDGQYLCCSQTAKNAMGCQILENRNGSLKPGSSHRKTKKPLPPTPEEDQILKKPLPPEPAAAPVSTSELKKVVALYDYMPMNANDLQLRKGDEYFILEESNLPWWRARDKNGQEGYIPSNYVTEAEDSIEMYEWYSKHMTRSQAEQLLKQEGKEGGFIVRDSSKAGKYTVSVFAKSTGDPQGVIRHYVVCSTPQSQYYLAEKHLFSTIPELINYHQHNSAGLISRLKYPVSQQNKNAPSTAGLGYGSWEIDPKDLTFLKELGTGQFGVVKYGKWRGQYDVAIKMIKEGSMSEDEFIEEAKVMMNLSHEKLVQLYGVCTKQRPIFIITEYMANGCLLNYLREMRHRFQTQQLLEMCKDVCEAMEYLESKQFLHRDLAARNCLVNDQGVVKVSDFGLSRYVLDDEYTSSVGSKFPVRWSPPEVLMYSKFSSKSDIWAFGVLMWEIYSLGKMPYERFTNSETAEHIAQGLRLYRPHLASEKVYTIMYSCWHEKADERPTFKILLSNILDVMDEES
PRK2, sequence (Q16513 whole entry): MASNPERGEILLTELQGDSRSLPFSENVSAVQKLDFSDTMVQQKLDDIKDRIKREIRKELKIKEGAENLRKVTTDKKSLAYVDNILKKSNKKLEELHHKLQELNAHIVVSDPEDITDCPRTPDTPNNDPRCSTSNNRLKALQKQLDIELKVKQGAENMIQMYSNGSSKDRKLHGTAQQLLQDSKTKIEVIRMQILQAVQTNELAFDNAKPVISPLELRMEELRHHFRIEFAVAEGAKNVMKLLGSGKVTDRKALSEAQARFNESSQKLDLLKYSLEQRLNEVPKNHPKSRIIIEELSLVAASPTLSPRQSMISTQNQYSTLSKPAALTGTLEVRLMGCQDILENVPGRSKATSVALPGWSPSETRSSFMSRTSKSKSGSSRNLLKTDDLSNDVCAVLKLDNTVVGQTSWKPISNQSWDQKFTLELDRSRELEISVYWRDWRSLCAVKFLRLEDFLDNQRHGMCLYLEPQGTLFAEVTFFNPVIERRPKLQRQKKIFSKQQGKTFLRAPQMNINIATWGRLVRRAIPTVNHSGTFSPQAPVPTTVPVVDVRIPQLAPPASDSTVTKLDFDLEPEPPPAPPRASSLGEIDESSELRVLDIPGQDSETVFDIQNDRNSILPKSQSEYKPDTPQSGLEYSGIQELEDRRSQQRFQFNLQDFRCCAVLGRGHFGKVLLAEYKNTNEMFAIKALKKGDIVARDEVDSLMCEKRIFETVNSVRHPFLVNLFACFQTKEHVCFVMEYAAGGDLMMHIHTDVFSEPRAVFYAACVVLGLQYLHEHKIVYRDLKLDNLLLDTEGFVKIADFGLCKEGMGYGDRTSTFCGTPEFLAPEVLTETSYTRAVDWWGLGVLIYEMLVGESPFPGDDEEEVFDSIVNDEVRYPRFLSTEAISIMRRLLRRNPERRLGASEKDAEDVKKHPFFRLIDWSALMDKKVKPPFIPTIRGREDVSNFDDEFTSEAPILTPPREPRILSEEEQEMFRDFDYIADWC
MST4, sequence (Q9P289 whole entry): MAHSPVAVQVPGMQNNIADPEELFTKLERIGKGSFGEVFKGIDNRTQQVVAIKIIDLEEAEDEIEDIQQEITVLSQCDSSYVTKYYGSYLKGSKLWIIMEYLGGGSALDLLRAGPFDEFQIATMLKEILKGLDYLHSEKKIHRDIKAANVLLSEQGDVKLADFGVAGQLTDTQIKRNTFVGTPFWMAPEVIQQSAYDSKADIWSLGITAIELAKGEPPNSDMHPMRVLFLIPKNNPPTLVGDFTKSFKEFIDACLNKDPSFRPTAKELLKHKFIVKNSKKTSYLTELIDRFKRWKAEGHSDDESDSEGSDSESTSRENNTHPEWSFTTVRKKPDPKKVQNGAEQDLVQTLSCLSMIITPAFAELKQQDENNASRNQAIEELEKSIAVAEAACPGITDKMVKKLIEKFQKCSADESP
PDGFRA, sequence (P16234 24-1089): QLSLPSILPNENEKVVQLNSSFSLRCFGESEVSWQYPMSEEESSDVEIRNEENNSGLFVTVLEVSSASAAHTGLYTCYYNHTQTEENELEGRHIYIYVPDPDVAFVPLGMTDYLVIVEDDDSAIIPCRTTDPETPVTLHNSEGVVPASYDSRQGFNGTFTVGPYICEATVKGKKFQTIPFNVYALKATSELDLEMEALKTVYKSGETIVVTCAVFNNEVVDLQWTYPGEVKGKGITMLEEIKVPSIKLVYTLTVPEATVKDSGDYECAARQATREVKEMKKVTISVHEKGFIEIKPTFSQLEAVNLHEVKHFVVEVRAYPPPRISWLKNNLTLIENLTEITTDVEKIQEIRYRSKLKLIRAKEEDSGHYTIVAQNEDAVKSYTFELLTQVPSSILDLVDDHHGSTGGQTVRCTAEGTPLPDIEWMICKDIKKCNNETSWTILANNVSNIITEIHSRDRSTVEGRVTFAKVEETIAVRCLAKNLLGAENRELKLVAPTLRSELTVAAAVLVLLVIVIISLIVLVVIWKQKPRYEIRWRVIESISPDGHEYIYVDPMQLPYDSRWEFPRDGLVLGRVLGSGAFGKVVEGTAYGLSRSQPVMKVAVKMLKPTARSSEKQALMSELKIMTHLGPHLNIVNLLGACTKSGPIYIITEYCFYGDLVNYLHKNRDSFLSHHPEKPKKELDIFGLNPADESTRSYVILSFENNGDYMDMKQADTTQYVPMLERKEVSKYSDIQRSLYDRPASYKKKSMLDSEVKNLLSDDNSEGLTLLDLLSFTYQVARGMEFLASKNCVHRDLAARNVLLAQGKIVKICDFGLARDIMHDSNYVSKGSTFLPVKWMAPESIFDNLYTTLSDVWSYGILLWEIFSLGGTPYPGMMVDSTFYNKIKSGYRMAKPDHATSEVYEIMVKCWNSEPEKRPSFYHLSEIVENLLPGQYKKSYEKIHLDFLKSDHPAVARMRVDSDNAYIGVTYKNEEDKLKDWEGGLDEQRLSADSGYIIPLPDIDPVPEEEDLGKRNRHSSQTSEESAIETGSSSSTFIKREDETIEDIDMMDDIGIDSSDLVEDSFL

N=C(N)NCCC[C@@H](NC(=O)CNC(=O)[C@@H](CCCNC(=N)N)NC(=O)[C@@H](CCCNC(=N)N)NC(=O)Cn1cc(CNCc2nc3c(sc4ccc(Br)cc43)c(=O)[nH]2)nn1)C(=O)N[C@H](CCCCN)C(N)=O [Compound 3, BBTP-Amt-(D-Arg)2-Gly-D-Arg-D-Lys-NH2]
remaining activity at 1 µM [1]: 101 ± 2%
remaining activity at 1 µM [2]: 82 ± 1%
remaining activity at 1 µM [3]: 52 ± 10%
remaining activity at 1 µM [4]: 95 ± 32%
remaining activity at 1 µM [5]: 108 ± 4%
remaining activity at 1 µM [6]: 110 ± 5%
remaining activity at 1 µM [7]: 89 ± 2%
remaining activity at 1 µM [8]: 97 ± 7%
remaining activity at 1 µM [9]: 67 ± 4%
remaining activity at 1 µM [10]: 91 ± 2%
remaining activity at 1 µM [11]: 100 ± 6%

N=C(N)NCCC[C@@H](NC(=O)CCCCCNCc1nc2c(sc3cc(Br)cnc32)c(=O)[nH]1)C(=O)N[C@H](CCCNC(=N)N)C(=O)N[C@H](CCCNC(=N)N)C(=O)N[C@H](CCCNC(=N)N)C(=O)N[C@H](CCCNC(=N)N)C(=O)N[C@H](CCCNC(=N)N)C(=O)N[C@H](CCCCN)C(N)=O [ARC-3126, BPTP-Ahx-(D-Arg)6-D-Lys-NH2] (X3-[dR][dR][dR][dR][dR][dR][dK]-NH2)
remaining activity at 1 µM [1]: 121 ± 11%
remaining activity at 1 µM [2]: 43 ± 2%
remaining activity at 1 µM [3]: 76 ± 15%
remaining activity at 1 µM [4]: 125 ± 22%
remaining activity at 1 µM [5]: 116 ± 3%
remaining activity at 1 µM [6]: 115 ± 17%
remaining activity at 1 µM [7]: 92 ± 4%
remaining activity at 1 µM [8]: 50 ± 16%
remaining activity at 1 µM [9]: 58 ± 15%
remaining activity at 1 µM [10]: 89 ± 5%
remaining activity at 1 µM [11]: 94 ± 4%

N=C(N)NCCC[C@@H](NC(=O)CCCCCNC(=O)Cn1cnc2c(I)c(I)c(I)c(I)c21)C(=O)N[C@H](CCCNC(=N)N)C(=O)N[C@H](CCCNC(=N)N)C(=O)N[C@H](CCCNC(=N)N)C(=O)N[C@H](CCCNC(=N)N)C(=O)N[C@H](CCCNC(=N)N)C(=O)N[C@H](CCCCN)C(N)=O [ARC-3125, TIBI-CH2-C(=O)-Ahx-(D-Arg)6-D-Lys-NH2]
remaining activity at 1 µM [1]: 93%
remaining activity at 1 µM [2]: 31 ± 2%
remaining activity at 1 µM [3]: 116 ± 16%
remaining activity at 1 µM [4]: 71 ± 4%
remaining activity at 1 µM [5]: 97%
remaining activity at 1 µM [6]: 81 ± 9%
remaining activity at 1 µM [7]: 14 ± 1%
remaining activity at 1 µM [8]: 40 ± 4%
remaining activity at 1 µM [9]: 16 ± 6%
remaining activity at 1 µM [10]: 54 ± 1%
remaining activity at 1 µM [11]: 80 ± 6%

N=C(N)NCCC[C@@H](NC(=O)CNC(=O)[C@@H](CCCNC(=N)N)NC(=O)[C@@H](CCCNC(=N)N)NC(=O)CCCCCCCNCc1nc2c(sc3cc(Br)cnc32)c(=O)[nH]1)C(=O)N[C@H](CCCCN)C(N)=O [Compound 1, BPTP-Aoc-(D-Arg)2-Gly-D-Arg-D-Lys-NH2]
remaining activity at 1 µM [1]: 99%
remaining activity at 1 µM [2]: 106 ± 10%
remaining activity at 1 µM [3]: 107 ± 9%
remaining activity at 1 µM [4]: 143 ± 10%
remaining activity at 1 µM [5]: 115 ± 2%
remaining activity at 1 µM [6]: 112 ± 2%
remaining activity at 1 µM [7]: 95 ± 6%
remaining activity at 1 µM [8]: 99 ± 1%
remaining activity at 1 µM [9]: 92 ± 2%
remaining activity at 1 µM [10]: 102 ± 1%
remaining activity at 1 µM [11]: 108 ± 14%

N=C(N)NCCC[C@@H](NC(=O)CNC(=O)[C@@H](CCCNC(=N)N)NC(=O)[C@@H](CCCNC(=N)N)NC(=O)CCCCCCCNCc1nc2c(sc3ccc(Br)cc32)c(=O)[nH]1)C(=O)N[C@H](CCCCN)C(N)=O [Compound 2, BBTP-Aoc-(D-Arg)2-Gly-D-Arg-D-Lys-NH2]
remaining activity at 1 µM [1]: 102 ± 5%
remaining activity at 1 µM [2]: 99 ± 20%
remaining activity at 1 µM [3]: 103 ± 2%
remaining activity at 1 µM [4]: 121 ± 8%
remaining activity at 1 µM [5]: 101 ± 16%
remaining activity at 1 µM [6]: 102 ± 4%
remaining activity at 1 µM [7]: 118 ± 11%
remaining activity at 1 µM [8]: 99 ± 1%
remaining activity at 1 µM [9]: 94 ± 12%
remaining activity at 1 µM [10]: 113 ± 7%
remaining activity at 1 µM [11]: 113 ± 4%
